Test results reported in patent publication US20210292413A1.
pKd: −log10 of the molar value.

Experiments:
[1] = target: HBV purified from blood of chronic hepatitis B patients (hHBV virions carrying hHBsAg) (hepatitis B virus from CHB patients); test: BLI, Siglec-3.Fc immobilized on the sensor, hHBV in solution
[2] = target: HBV purified from blood of chronic hepatitis B patients (hHBV virions carrying hHBsAg) (hepatitis B virus from CHB patients); test: BLI, Siglec-3.Fc immobilized on the sensor, untreated hHBV in solution
[3] = target: HBV purified from blood of chronic hepatitis B patients (hHBV virions carrying hHBsAg) (hepatitis B virus from CHB patients); test: calculated from three BLI results by the multivalency equation of paragraph 89
[4] = target: hHBV treated with sialidase S (hepatitis B virus from CHB patients); test: BLI, Siglec-3.Fc immobilized on the sensor, sialidase S-treated hHBV in solution

With “recombinant human Siglec-3 ECD.Fc fusion protein (from UniProt P20138 18-259)” the pKd [1] was 9.94, the koff [1] was 0.000358 s⁻¹ and the kon [1] was 3.11e+06 M⁻¹ s⁻¹. It also gave a pKd [2] of 9.23, a koff [2] of 0.000697 s⁻¹ and a kon [2] of 1.18e+06 M⁻¹ s⁻¹. For the same substance, the valence (N) [3] was 2, the pKd [4] was 9.42 and the koff [4] was 0.000273 s⁻¹. The kon [4] was 711000 M⁻¹ s⁻¹.
